Literature values, collected in paper PMC7851832.

Biological target: FGFR2 (Homo sapiens) (UniProt P21802)
Sequence (P21802 22-821): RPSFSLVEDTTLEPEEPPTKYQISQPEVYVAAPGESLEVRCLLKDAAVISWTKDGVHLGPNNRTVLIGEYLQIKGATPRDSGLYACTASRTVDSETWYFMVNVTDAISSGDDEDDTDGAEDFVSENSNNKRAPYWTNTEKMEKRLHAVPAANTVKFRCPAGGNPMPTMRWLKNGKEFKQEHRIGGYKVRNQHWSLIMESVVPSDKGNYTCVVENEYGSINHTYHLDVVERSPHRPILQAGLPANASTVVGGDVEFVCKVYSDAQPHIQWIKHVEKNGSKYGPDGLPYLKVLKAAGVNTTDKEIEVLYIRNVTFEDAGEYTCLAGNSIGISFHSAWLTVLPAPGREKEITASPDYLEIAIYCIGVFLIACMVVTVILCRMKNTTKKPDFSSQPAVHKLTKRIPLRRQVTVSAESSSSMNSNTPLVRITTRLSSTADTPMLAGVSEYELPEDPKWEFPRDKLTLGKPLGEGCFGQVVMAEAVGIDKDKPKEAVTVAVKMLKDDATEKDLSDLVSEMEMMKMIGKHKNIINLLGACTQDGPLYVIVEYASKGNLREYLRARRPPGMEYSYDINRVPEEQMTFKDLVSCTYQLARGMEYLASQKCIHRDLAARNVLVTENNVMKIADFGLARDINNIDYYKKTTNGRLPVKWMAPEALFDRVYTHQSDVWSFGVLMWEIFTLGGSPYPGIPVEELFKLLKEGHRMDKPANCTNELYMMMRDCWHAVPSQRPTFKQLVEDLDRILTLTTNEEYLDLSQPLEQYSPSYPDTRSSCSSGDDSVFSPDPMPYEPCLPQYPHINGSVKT

Chain of FGF1 (P05230 16-155): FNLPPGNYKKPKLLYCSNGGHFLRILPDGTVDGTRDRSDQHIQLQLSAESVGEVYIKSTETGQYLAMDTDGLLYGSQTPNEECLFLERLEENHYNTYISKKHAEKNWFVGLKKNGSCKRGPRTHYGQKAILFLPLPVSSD

Kd: 300 nM
Substance: FGF1 (from UniProt P05230)
